According to PMC10308643, “Nesfatin-3 possesses divalent metal ion binding properties, which remain hidden in the nucleobindin-2 precursor protein” (Cell Communication and Signaling : CCS, 2023):
“And” between values parts separate entries of the source, which are not always exact repeats. Equal entries are not always repeated.

B1: nesfatin-3 from Homo sapiens (domain or fragment, UniProt P80303 190-420, looked up)
chain: EYLKTLNEEKRKEEESKFEEMKKKHENHPKVNHPGSKDQLKEVWEETDGLDPNDFDPKTFFKLHDVNSDGFLDEQELEALFTKELEKVYDPKNEEDDMVEMEEERLRMREHVMNEVDTNKDRLVTLEEFLKATEKKEFLEPDSWETLDQQQFFTEEELKEYENIIALQENELKKKADELQKQKEELQRQHDQLEAQKLEYHQVIQQMEQKKLQQGIPPSGPAGELKFEPHI
notes: also called hsNesfatin-3; apo-hsNesfatin-3; source: expressed from pQE-80L/HRV3C and purified as reported previously [16, 17]

Key:
[1] = biological target: nesfatin-3 from Gallus gallus (Gallus gallus); experiment: AUC; sedimentation velocity, c(s) analysis; 0.5, 0.75 and 1.0 mg/ml protein in 20 mM Tris pH 7.5, 150 mM NaCl, 10 mM MgCl2; 20 °C, 50 000 rpm; monomer-dimer
[2] = biological target: nesfatin-3 from Gallus gallus (Gallus gallus); experiment: AUC; sedimentation velocity, c(s) analysis; 0.5, 0.75 and 1.0 mg/ml protein in 20 mM Tris pH 7.5, 150 mM NaCl, 300 µM ZnCl2; 20 °C, 50 000 rpm; monomer-dimer
[3] = biological target: nesfatin-3 from Gallus gallus (Gallus gallus); experiment: AUC; sedimentation velocity, c(s) analysis; 0.5, 0.75 and 1.0 mg/ml protein in 20 mM Tris pH 7.5, 150 mM NaCl, 5 mM EDTA (apo form); 20 °C, 50 000 rpm; monomer-dimer
[4] = biological target: nesfatin-3 from Gallus gallus (Gallus gallus); experiment: AUC; sedimentation velocity, c(s) analysis; 0.5, 0.75 and 1.0 mg/ml protein in 20 mM Tris pH 7.5, 150 mM NaCl, 10 mM CaCl2; 20 °C, 50 000 rpm; monomer-dimer
[5] = biological target: nesfatin-3 from Gallus gallus (Gallus gallus); experiment: AUC; sedimentation velocity, c(s) analysis; 0.5, 0.75 and 1.0 mg/ml protein in 20 mM Tris pH 7.5, 150 mM NaCl, 800 µM ZnCl2; 20 °C, 50 000 rpm; monomer-dimer(-tetramer)
[6] = biological target: nesfatin-3 from Gallus gallus (Gallus gallus); experiment: AUC; sedimentation velocity, c(s) analysis; 0.5, 0.75 and 1.0 mg/ml protein in 20 mM Tris pH 7.5, 150 mM NaCl, 100 µM ZnCl2; 20 °C, 50 000 rpm; monomer-dimer(-tetramer)
[7] = biological target: the molecule itself; experiment: AUC; sedimentation velocity, c(s) analysis; 0.5, 0.75 and 1.0 mg/ml protein in 20 mM Tris pH 7.5, 150 mM NaCl, 5 mM EDTA (apo form); 20 °C, 50 000 rpm; monomer-dimer
[8] = biological target: the molecule itself; experiment: as above; remark: listed apart in the source
[9] = biological target: the molecule itself; experiment: AUC; sedimentation velocity, c(s) analysis; 0.5, 0.75 and 1.0 mg/ml protein in 20 mM Tris pH 7.5, 150 mM NaCl, 10 mM MgCl2; 20 °C, 50 000 rpm; monomer-dimer

Molecule	dimer-to-monomer ratio (dimer:monomer) [1]	percent dimer [1]	percent dimer [2]	percent dimer [3]	stoichiometry N [3]	percent dimer [4]	percent dimer [5]	percent dimer [6]	stoichiometry N [7]	percent dimer [8]	percent dimer [9]
nesfatin-3 from Gallus gallus (domain or fragment)	9	100% and 83% and 92%	59% and 64% and 70%	75% and 76% and 77%	2	76% and 77% and 74%	90% and 91% and 88%	74% and 80% and 79%	–	–	–
B1	–	–	–	–	–	–	–	–	2	100%	100%
